Source: paper PMC5467231, “The signalling receptor MCAM coordinates apical-basal polarity and planar cell polarity during morphogenesis” (Nature Communications, 2017)

Molecular target: T1, recombinant human MCAM/Fc chimera (Sino Biological 10115-H02H) (human, UniProt P43121 24-559)
T1 construct: melanoma cell adhesion molecule (MCAM), human, part fused to Fc; IgG1 Fc served as the control chimera; source: bought: Sino Biological Inc
T1 sequence (looked up): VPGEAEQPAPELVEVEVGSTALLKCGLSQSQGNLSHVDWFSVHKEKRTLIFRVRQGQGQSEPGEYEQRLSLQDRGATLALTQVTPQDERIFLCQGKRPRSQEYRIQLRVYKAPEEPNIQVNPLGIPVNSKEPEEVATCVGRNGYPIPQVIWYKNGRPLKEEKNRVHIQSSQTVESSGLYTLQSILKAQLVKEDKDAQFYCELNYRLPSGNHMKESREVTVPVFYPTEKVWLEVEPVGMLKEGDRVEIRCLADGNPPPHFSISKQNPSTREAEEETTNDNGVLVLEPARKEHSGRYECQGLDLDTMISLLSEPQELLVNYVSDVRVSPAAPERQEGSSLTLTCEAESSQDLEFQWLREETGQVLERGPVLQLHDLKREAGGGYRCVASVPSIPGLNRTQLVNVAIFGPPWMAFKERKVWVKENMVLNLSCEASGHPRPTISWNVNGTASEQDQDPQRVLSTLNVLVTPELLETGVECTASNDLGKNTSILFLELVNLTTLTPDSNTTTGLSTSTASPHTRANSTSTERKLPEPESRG
Test: SPR; Biacore T100, CM5 chip, room temperature, 1x PBS with 0.05% Tween 20; MCAM/Fc, FGFR1/Fc, FGFR2/Fc or IgG1 Fc immobilised by amine coupling, soluble FGF2, FGF4 or FGF8 flowed over; 1:1 binding model
Details: both partners purified

Kd: 0.97 nM
B1: recombinant FGF4 (Peprotech AF-100-31) (ligand, UniProt P08620 31-206, looked up)
chain: APTAPNGTLEAELERRWESLVALSLARLPVAAQPKEAAVQSGAGDYLLGIKRLRRLYCNVGIGFHLQALPDGRIGGAHADTRDSLLELSPVERGVVSIFGVASRFFVAMSSKGKLYGSPFFTDECTFKEILLPNNYNAYESYKYPGMFIALSKNGKTKKGNRVSPTMKVTHFLPRL
notes: fibroblast growth factor 4, recombinant, soluble; also called soluble FGF4; source: bought: Peprotech
